Numbering of substitutions follows the chain as printed.
Key:
Test in all cases: cell-based or functional assay
[1] = biological target: T1, Chryseobacterium sp-62563 deamidase polypeptide (second polypeptide, deamidase domain), wildtype (Chryseobacterium sp-62563)
T1 chain: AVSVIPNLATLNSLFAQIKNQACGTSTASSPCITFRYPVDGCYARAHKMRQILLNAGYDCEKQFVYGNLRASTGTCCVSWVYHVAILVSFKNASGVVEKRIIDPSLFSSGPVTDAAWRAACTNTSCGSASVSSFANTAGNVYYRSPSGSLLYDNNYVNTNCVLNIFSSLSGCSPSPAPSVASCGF

[2] = biological target: T1, Chryseobacterium sp-62563 deamidase …
[3] = biological target: T2, Chryseobacterium sp-62563 deamidase V190D (Chryseobacterium sp-62563)
T2 chain: T1 chain with V81D

[4] = biological target: T3, Chryseobacterium sp-62563 deamidase V190F (Chryseobacterium sp-62563)
T3 chain: T1 chain with V81F

[5] = biological target: T4, Chryseobacterium sp-62563 deamidase V190G (Chryseobacterium sp-62563)
T4 chain: T1 chain with V81G

[6] = biological target: T5, Chryseobacterium sp-62563 deamidase V190K (Chryseobacterium sp-62563)
T5 chain: T1 chain with V81K

[7] = biological target: T6, Chryseobacterium sp-62563 deamidase V190P (Chryseobacterium sp-62563)
T6 chain: T1 chain with V81P

[8] = biological target: T7, Chryseobacterium sp-62563 deamidase L260K (Chryseobacterium sp-62563)
T7 chain: T1 chain with L151K

[9] = biological target: T8, Chryseobacterium sp-62563 deamidase Y261P (Chryseobacterium sp-62563)
T8 chain: T1 chain with Y152P

[10] = biological target: Chryseobacterium sp-62563 deamidase A131* (Chryseobacterium sp-62563)
[11] = biological target: Chryseobacterium sp-62563 deamidase D262* (Chryseobacterium sp-62563)
[12] = biological target: Chryseobacterium sp-62563 deamidase V148* (Chryseobacterium sp-62563)

B1: Chryseobacterium sp-62563 propeptide (first polypeptide, propeptide domain), wildtype (other)
chain: NQDPNLVAKESNETAMKDFGKTVPVGIEKEDGKFKISFMVTAQPYEIKDSKENAAYISMIKTAVENETPIHVFLKANTNEIAKVDKATDDDIRYFKSVFTKEVKEENRK
NanoDSF thermal unfolding temperature [1]: 85.3 ° C. | Relative activity of maturated deamidase [2]: < 20 % initial rate | Relative activity of maturated deamidase [3]: 30 % initial rate | Relative activity of maturated deamidase [4]: ≥ 100 % initial rate | Relative activity of maturated deamidase [5]: ≥ 100 % initial rate | Relative activity of maturated deamidase [6]: 36 % initial rate | Relative activity of maturated deamidase [7]: 32 % initial rate | Relative activity of maturated deamidase [8]: 73 % initial rate | Relative activity of maturated deamidase [9]: 32 % initial rate | NanoDSF thermal unfolding temperature [10]: 79.1 ° C. | NanoDSF thermal unfolding temperature [11]: 77.7 ° C. | NanoDSF thermal unfolding temperature [12]: 69.2 ° C.

From patent publication US20250215412A1 (NOVOZYMES A S, published 2025)
